Measured values published in patent publication US20250262210A1 (TRUSTEES OF COLUMBIA UNIVERSITY IN THE CITY OF NEW YORK, published 2025).

Legend:
Assay in all cases: IP/MS, LZTR1 wild type-FLAG, U87
[1] = target: ASXL1 (human, UniProt Q8IXJ9 1-1541, limits assumed)
Summary of the method: (§1)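 Read-out: spectral counts from LC-MS/MS (Orbitrap Fusion) after MaxQuant identification. Variable modifications were Met oxidation, protein N-terminal acetylation and N/Q deamidation.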

[2] = target: T1, SEC24D (human, UniProt O94855 1-1032, limits assumed)
T1 sequence (looked up): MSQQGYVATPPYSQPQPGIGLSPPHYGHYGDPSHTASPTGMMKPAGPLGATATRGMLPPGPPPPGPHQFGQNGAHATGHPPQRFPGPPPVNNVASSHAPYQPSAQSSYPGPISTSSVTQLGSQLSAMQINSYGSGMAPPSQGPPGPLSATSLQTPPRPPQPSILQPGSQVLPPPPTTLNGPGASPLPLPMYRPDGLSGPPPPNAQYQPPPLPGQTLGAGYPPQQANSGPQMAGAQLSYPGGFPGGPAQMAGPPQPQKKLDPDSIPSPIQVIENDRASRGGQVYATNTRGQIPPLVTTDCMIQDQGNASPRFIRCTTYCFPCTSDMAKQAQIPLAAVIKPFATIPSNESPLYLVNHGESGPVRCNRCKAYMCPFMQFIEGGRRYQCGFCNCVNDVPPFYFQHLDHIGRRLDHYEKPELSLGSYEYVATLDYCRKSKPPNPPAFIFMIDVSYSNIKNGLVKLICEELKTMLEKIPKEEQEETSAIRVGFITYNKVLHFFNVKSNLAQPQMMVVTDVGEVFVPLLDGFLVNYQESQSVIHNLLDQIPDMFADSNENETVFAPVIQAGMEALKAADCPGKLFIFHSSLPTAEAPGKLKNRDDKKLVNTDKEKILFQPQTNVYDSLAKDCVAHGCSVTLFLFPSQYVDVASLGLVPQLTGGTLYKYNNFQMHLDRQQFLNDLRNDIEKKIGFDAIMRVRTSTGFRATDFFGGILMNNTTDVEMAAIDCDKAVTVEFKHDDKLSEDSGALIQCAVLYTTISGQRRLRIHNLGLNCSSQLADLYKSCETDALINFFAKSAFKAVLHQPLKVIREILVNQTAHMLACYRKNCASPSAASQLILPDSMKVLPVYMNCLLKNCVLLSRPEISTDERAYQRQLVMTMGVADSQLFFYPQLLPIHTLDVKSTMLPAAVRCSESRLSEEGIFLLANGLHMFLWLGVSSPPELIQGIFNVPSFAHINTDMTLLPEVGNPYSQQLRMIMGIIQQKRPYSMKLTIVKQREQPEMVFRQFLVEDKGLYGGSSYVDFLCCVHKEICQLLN
Summary of the method: as §1

[3] = target: ARHGAP31 (human, UniProt Q2M1Z3 1-1444)
Summary of the method: as §1

[4] = target: CDK5RAP2 (human, UniProt Q96SN8 1-1893, limits assumed)
Summary of the method: as §1

[5] = target: RUSC2 (human, UniProt Q8N2Y8 1-1516)
Summary of the method: as §1

[6] = target: ALPK2 (human, UniProt Q86TB3 1-2170)
Summary of the method: as §1

[7] = target: SPG11 (human, UniProt Q96JI7 1-2443, limits assumed)
Summary of the method: as §1

[8] = target: KNL1 (human, UniProt Q8NG31 1-2342, limits assumed)
Summary of the method: as §1

Measured: binding result

Chain of SPG11 (Q96JI7 whole entry): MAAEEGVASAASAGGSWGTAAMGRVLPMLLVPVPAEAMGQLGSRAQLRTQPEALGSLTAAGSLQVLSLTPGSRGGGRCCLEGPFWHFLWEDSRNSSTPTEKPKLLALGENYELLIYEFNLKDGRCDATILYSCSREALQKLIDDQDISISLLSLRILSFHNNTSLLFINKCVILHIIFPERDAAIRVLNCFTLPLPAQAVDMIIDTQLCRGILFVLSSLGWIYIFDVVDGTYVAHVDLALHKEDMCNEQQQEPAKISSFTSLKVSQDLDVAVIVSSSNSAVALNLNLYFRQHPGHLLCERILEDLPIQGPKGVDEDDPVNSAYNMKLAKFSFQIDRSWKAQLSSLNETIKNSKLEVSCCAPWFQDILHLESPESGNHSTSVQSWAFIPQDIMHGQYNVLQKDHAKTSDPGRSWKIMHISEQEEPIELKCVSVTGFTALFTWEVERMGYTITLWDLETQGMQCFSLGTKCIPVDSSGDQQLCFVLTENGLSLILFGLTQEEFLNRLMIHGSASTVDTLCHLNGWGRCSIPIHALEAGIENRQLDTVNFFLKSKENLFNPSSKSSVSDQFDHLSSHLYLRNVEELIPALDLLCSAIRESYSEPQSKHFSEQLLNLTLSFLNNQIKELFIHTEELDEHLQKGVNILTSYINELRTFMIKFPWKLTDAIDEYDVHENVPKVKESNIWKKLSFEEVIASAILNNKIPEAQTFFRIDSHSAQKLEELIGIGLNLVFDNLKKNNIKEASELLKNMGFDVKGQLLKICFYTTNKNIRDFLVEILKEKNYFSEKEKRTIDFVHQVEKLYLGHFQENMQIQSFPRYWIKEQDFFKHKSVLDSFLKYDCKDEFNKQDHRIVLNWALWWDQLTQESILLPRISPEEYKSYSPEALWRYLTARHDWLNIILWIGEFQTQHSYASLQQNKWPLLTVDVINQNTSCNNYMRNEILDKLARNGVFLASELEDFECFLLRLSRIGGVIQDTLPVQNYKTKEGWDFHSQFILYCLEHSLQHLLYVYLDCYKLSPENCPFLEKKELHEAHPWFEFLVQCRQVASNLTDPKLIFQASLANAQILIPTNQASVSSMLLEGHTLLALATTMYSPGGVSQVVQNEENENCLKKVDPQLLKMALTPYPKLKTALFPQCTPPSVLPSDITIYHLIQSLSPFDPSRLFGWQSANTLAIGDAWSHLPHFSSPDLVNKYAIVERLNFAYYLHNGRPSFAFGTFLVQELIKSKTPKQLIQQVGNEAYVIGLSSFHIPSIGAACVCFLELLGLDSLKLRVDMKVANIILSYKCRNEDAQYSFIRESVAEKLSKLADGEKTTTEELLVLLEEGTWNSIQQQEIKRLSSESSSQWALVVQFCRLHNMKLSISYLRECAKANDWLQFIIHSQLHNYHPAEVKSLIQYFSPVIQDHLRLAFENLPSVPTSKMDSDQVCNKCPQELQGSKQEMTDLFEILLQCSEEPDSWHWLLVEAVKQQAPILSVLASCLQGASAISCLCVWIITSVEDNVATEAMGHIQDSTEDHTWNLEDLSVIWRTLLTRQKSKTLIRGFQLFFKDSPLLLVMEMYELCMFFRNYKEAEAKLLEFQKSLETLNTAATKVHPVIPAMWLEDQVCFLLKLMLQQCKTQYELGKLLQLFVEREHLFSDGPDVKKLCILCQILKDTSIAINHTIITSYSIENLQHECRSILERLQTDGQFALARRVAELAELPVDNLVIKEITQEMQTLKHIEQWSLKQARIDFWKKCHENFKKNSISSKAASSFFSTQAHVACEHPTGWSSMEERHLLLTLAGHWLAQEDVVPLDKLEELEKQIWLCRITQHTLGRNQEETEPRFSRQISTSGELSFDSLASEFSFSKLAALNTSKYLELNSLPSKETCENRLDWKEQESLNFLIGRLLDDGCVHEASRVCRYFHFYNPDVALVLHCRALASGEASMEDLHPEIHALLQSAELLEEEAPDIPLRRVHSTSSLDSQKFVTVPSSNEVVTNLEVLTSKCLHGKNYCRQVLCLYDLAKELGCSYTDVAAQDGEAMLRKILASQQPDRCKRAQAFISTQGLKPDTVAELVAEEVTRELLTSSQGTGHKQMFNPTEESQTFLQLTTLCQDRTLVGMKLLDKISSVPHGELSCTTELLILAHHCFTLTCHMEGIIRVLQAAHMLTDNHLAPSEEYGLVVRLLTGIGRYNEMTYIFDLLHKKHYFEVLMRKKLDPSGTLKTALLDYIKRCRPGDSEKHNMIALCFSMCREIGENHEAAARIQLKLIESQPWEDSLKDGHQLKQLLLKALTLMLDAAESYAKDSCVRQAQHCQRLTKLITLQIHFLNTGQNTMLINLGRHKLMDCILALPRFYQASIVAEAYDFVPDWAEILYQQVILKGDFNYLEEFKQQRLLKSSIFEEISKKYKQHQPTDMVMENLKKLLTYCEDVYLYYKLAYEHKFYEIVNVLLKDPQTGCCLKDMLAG
Chain of ASXL1 (Q8IXJ9 whole entry, the tested form may be a part): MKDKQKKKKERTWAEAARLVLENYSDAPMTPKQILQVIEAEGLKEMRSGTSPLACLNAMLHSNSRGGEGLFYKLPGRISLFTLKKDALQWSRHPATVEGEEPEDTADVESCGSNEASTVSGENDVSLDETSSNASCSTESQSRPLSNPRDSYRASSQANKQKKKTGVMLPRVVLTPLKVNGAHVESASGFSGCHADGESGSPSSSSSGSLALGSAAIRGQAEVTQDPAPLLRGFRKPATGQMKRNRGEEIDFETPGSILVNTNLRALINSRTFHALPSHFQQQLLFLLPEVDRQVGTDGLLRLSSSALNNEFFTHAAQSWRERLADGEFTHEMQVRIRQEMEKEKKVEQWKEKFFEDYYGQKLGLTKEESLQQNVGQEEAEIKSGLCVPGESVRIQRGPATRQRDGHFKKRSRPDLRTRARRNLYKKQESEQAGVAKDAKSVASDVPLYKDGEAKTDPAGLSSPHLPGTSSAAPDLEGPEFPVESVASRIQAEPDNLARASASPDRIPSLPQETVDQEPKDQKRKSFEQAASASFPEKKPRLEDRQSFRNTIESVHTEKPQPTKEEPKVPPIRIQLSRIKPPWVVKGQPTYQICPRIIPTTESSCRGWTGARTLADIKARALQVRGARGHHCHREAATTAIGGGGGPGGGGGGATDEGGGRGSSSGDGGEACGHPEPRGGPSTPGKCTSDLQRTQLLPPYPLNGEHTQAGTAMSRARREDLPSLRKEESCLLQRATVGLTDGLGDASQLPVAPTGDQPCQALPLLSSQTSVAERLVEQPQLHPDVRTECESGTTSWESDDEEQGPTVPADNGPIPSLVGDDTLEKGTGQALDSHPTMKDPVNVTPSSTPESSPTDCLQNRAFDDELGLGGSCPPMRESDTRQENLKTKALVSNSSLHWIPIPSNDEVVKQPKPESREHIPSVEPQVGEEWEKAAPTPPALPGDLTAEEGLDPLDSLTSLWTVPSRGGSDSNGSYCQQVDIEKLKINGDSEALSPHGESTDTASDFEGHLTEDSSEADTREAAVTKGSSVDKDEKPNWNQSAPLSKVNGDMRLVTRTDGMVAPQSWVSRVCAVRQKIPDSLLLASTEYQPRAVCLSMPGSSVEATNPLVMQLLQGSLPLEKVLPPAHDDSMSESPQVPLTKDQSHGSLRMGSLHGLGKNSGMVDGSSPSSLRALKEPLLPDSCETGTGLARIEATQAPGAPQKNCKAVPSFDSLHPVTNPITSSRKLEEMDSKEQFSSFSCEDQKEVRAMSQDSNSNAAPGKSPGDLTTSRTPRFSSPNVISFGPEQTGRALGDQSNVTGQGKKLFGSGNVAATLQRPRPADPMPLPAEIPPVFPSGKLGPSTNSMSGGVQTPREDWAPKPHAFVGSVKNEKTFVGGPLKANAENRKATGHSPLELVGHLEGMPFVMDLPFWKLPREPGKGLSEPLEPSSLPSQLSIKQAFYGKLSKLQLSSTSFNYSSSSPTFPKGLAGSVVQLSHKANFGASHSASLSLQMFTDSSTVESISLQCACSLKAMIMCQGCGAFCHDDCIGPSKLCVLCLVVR

B1: LZTR1-FLAG (other, human, UniProt Q8N653 1-840, looked up)
chain: MAGPGSTGGQIGAAALAGGARSKVAPSVDFDHSCSDSVEYLTLNFGPFETVHRWRRLPPCDEFVGARRSKHTVVAYKDAIYVFGGDNGKTMLNDLLRFDVKDCSWCRAFTTGTPPAPRYHHSAVVYGSSMFVFGGYTGDIYSNSNLKNKNDLFEYKFATGQWTEWKIEGRLPVARSAHGATVYSDKLWIFAGYDGNARLNDMWTIGLQDRELTCWEEVAQSGEIPPSCCNFPVAVCRDKMFVFSGQSGAKITNNLFQFEFKDKTWTRIPTEHLLRGSPPPPQRRYGHTMVAFDRHLYVFGGAADNTLPNELHCYDVDFQTWEVVQPSSDSEVGGAEVPERACASEEVPTLTYEERVGFKKSRDVFGLDFGTTSAKQPTQPASELPSGRLFHAAAVISDAMYIFGGTVDNNIRSGEMYRFQFSCYPKCTLHEDYGRLWESRQFCDVEFVLGEKEECVQGHVAIVTARSRWLRRKITQARERLAQKLEQEAAPVPREAPGVAAGGARPPLLHVAIREAEARPFEVLMQFLYTDKIKYPRKGHVEDVLLIMDVYKLALSFQLCRLEQLCRQYIEASVDLQNVLVVCESAARLQLSQLKEHCLNFVVKESHFNQVIMMKEFERLSSPLIVEIVRRKQQPPPRTPLDQPVDIGTSLIQDMKAYLEGAGAEFCDITLLLDGHPRPAHKAILAARSSYFEAMFRSFMPEDGQVNISIGEMVPSRQAFESMLRYIYYGEVNMPPEDSLYLFAAPYYYGFYNNRLQAYCKQNLEMNVTVQNVLQILEAADKTQALDMKRHCLHIIVHQFTKVSKLPTLRSLSQQLLLDIIDSLASHISDKQCAELGADI
notes: Expressed in HEK 293T, HeLa or U87 cells; used as cell lysate; also called LZTR1 wild type-FLAG; LZTR1 WT; not shown: FLAG tag at the C-terminus
binds: all assays above
